T1: Centromere B (UniProt P07199)
T1 sequence (looked up): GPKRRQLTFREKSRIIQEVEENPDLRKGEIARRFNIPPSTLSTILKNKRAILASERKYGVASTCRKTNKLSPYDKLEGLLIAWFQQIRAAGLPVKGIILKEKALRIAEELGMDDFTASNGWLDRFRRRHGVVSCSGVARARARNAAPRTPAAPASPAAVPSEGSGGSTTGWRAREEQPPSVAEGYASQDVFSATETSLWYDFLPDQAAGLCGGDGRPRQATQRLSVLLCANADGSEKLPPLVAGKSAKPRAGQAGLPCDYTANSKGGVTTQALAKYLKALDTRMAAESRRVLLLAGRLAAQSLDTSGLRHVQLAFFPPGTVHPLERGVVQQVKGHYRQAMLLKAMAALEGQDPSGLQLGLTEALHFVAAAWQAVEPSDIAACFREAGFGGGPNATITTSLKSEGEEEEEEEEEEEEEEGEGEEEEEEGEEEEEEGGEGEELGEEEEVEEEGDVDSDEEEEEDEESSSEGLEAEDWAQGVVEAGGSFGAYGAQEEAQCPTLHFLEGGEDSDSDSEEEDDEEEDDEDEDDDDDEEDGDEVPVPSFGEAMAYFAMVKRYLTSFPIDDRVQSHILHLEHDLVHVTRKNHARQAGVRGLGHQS

T2: Jo-1 (UniProt P12081)
T2 sequence (looked up): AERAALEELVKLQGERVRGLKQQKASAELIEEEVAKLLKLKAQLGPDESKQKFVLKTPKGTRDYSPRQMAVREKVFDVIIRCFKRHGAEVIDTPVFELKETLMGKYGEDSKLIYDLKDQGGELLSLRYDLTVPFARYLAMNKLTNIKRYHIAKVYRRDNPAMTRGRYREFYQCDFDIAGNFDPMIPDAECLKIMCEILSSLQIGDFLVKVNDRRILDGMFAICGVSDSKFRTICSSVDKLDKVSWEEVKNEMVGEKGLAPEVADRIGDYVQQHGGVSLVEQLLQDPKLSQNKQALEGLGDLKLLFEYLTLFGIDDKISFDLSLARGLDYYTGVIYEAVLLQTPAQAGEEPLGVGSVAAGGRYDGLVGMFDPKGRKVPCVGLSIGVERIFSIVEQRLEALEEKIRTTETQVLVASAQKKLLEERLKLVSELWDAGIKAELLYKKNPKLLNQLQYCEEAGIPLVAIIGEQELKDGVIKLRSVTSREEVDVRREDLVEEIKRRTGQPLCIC

B1: CH239_4A/293i (antibody, from a related filing, V domains shown)
VH: QVQLVQSGAEVRKPGASVTVSCKASGYTFNNFYVHWVRQAPGQGLECMGWIDPSVGRINYAQKFQGRVTMTRDRSTSTVYMGLSSLRSEDTAIYYCVRDVGTEGSLLHFDHWGQGTLVIVSA
VL: EIVLTQSPATLSVSPGERATLSCRATQSVRSNVAWYQQKPGQAPRLLIYSASTRATGIPARFSGSGSGTEFTLTIASMQSEDFAVYYCLQYDDWWTFGQGTKVEIK
B2: CH236_4A/293i (antibody, from a related filing, V domains shown)
VH: QVQLVQSGAAVKRPGASVTISCRASGYTFTTYYIHWVRQAPGQRLELMGMIDPSRGRTDYAQKFQGRVTMSRDTSTSTLYMELRSLRPDDTALYYCVRNVGTEGSLLHYDYWGQGTLVTVSS
VL: EIVLTQSPATLSVSPGERVTLSCRASQSVRNNLAWYRQKRGQAPRLLIYGASTRATGIPARFSGSGSGTEFTLTISSMQSEDFAVYYCQQYNNWWTFGQGTKVEIK

Experiments:
[1] = substrate: T3, SSB (UniProt P05455); test: AtheNA, Ab 12.5 ug/ml
T3 sequence (looked up): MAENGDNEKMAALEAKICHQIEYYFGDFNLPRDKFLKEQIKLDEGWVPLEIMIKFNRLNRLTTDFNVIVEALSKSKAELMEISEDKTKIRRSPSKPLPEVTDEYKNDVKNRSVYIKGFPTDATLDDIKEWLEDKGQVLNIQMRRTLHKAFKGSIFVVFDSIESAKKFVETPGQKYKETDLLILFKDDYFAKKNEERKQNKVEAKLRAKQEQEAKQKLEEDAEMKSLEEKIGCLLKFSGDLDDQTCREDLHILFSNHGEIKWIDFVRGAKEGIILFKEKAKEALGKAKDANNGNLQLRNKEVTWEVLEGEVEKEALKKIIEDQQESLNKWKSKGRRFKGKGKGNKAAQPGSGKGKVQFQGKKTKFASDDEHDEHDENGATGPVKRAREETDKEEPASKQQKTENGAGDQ

[2] = target: Scl-70 (UniProt P11387); test: AtheNA, Ab 6.25 ug/ml
Sequence of Scl-70 (P11387 2-765 limits assumed): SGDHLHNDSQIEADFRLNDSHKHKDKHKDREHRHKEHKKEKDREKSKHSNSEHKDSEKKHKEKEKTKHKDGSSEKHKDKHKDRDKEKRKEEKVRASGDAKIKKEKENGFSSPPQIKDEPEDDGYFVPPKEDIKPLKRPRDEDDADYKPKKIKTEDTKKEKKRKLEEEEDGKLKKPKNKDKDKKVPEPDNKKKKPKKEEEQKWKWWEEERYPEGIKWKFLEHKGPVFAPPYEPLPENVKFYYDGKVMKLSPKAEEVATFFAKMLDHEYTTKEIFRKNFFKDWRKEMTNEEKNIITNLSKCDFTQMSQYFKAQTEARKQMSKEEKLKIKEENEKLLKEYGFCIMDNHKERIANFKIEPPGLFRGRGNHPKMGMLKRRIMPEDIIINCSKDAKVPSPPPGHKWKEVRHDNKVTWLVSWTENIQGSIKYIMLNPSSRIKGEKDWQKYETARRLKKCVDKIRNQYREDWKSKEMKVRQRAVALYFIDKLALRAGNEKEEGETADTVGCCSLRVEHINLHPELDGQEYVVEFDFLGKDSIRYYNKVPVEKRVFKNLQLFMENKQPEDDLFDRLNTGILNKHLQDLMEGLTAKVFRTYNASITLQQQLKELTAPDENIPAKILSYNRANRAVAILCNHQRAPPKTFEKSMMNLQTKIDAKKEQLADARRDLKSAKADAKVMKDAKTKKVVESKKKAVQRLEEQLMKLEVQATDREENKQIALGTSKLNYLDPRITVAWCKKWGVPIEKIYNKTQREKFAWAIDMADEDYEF

[3] = target: T1, Centromere B; test: AtheNA, Ab 6.25 ug/ml
[4] = target: T2, Jo-1; test: AtheNA, Ab 6.25 ug/ml
[5] = target: SSA; test: AtheNA, Ab 6.25 ug/ml
[6] = target: Histones; test: AtheNA, Ab 6.25 ug/ml
[7] = target: RNP (ribonucleoprotein); test: AtheNA, Ab 6.25 ug/ml
[8] = target: Sm (Smith antigen); test: AtheNA, Ab 6.25 ug/ml
[9] = target: T1, Centromere B; test: AtheNA, Ab 50 ug/ml
[10] = target: SSA; test: AtheNA, Ab 50 ug/ml
[11] = target: Histones; test: AtheNA, Ab 50 ug/ml
[12] = target: Sm (Smith antigen); test: AtheNA, Ab 50 ug/ml
[13] = substrate: T3, ; test: AtheNA, Ab 25 ug/ml
[14] = substrate: T3, ; test: AtheNA, Ab 6.25 ug/ml
[15] = target: T1, Centromere B; test: AtheNA, Ab 25 ug/ml
[16] = target: T2, Jo-1; test: AtheNA, Ab 25 ug/ml
[17] = target: SSA; test: AtheNA, Ab 25 ug/ml
[18] = target: Histones; test: AtheNA, Ab 25 ug/ml
[19] = target: RNP (ribonucleoprotein); test: AtheNA, Ab 25 ug/ml
[20] = target: Sm (Smith antigen); test: AtheNA, Ab 25 ug/ml
[21] = target: Scl-70 (UniProt P11387); test: AtheNA, Ab 12.5 ug/ml
[22] = target: T1, Centromere B; test: AtheNA, Ab 12.5 ug/ml
[23] = target: T2, Jo-1; test: AtheNA, Ab 12.5 ug/ml
[24] = target: SSA; test: AtheNA, Ab 12.5 ug/ml
[25] = target: Histones; test: AtheNA, Ab 12.5 ug/ml
[26] = target: RNP (ribonucleoprotein); test: AtheNA, Ab 12.5 ug/ml
[27] = target: Sm (Smith antigen); test: AtheNA, Ab 12.5 ug/ml
[28] = target: T2, Jo-1; test: AtheNA, Ab 50 ug/ml
[29] = substrate: T3, ; test: AtheNA, Ab 50 ug/ml
[30] = target: Scl-70 (UniProt P11387); test: AtheNA, Ab 25 ug/ml

Row | Binder | Athena reading (relative luminescence units) [1] | Athena reading (relative luminescence units) [2] | Athena reading (relative luminescence units) [3] | Athena reading (relative luminescence units) [4] | Athena reading (relative luminescence units) [5] | Athena reading (relative luminescence units) [6] | Athena reading (relative luminescence units) [7] | Athena reading (relative luminescence units) [8] | Athena reading (relative luminescence units) [9] | Athena reading (relative luminescence units) [10] | Athena reading (relative luminescence units) [11] | Athena reading (relative luminescence units) [12] | Athena reading (relative luminescence units) [13] | Athena reading (relative luminescence units) [14] | Athena reading (relative luminescence units) [15] | Athena reading (relative luminescence units) [16] | Athena reading (relative luminescence units) [17] | Athena reading (relative luminescence units) [18] | Athena reading (relative luminescence units) [19] | Athena reading (relative luminescence units) [20] | further results
1 | B1 | 6 | 49 | 260 | 8 | 178 | 266 | 78 | 285 | 173 | 289 | 228 | 250 | 8 | 5 | 199 | 11 | 306 | 253 | 96 | 237 | Athena reading (relative luminescence units) [21]: 48; Athena reading (relative luminescence units) [22]: 216; Athena reading (relative luminescence units) [23]: 8; Athena reading (relative luminescence units) [24]: 277; Athena reading (relative luminescence units) [25]: 263; Athena reading (relative luminescence units) [26]: 85; Athena reading (relative luminescence units) [27]: 277
2 | B2 | 63 | 31 | 208 | 7 | 44 | 154 | 40 | 184 | 84 | 177 | 138 | 128 | 175 | 15 | 129 | 72 | 224 | 193 | 69 | 165 | Athena reading (relative luminescence units) [28]: 145; Athena reading (relative luminescence units) [29]: 207; Athena reading (relative luminescence units) [30]: 62; Athena reading (relative luminescence units) [21]: 50; Athena reading (relative luminescence units) [22]: 233; Athena reading (relative luminescence units) [23]: 19; Athena reading (relative luminescence units) [24]: 185; Athena reading (relative luminescence units) [25]: 234; Athena reading (relative luminescence units) [26]: 78; Athena reading (relative luminescence units) [27]: 258
